We go through 32 variants from the RNAGym collection of RNA variant scans (doi:10.7554/elife.80360).

First the molecules themselves.
B1: HDV Ribozyme (parent)
chain: GGCCGGCAUGGUCCCAGCCUCCUCGCUGGCGCCGGCUGGGCAACAUUCCGAGGGGACCGUCCCCUCGGUAAUGGCGAAUGGGACCCA

Variants of B1 are the subject of the data set. The experiment in a line: self-cleavage, relative activity (ratio to wild type); higher = more cleavage; co-transcriptional.
Regarding GGCCGGCAUGGUCCCAGCCUCCUCGCUGACGCCGACUGGGCAACAUUCCGAGGGGACCGUCCCCUCGGUAAUGGCGAAUGGGACCCA [G29A G35A], the self-cleavage turned out to be 0.0923.

Turning to GGCCGGCAUGGACCCAGCCUCCUAGCUGGCGCCGGCUGGGCAACAUUCCGAGGGGACCGUCCCCUCGGUAAUGGCGAAUGGGACCCA [U12A C24A], the self-cleavage turned out to be 0.104.

As for GGCCGGCAUGGUCCCAGCCUCCUCGCUGGCGCCGGCUGGGCAACAUCCCGAGGGGACCCUCCCCUCGGUAAUGGCGAAUGGGACCCA [U47C G59C], the self-cleavage was determined as 1.09.

As for GGCCGGCAUGGUCCCAGCCUCCUCGCUGGCGCCGGCUGCGCAACAUUCCGAGGGGACCGUCCCCUCGGUAAUGGCGAAUGUGACCCA [G39C G81U], the self-cleavage was 0.143.

For GGCCGGCAUGGUCCCAGCUUCCUCGCUGGCGCCGGCUGGGCAACAUUCCGAGGGGACCGUCCCCUCUGUAAUGGCGAAUGGGACCCA [C19U G67U], the self-cleavage stood at 0.145.

With GGCCGGCAUGGUCCCAGACUCCUCGCUGGCGCCGGCUGGGCAACAUUCCGAGGGGACCGUCCCCUCGGUAAUGGCGAAUGGGAUCCA [C18A C84U], the self-cleavage was found to be 0.0997.

Take GGCCGGCAUGGUCCCAGCCUCCUCGUUGGCGCCGGCUGGUCAACAUUCCGAGGGGACCGUCCCCUCGGUAAUGGCGAAUGGGACCCA [C26U G40U]: the self-cleavage stood at 1.03.

Turning to GGCCGGCAUGGUCCCAGCCUCCUCGCUGGCGCCCGCUGGGCAACAUUCCGAGGGGACCGUCCCCUCGUUAAUGGCGAAUGGGACCCA [G34C G68U], the self-cleavage amounted to 0.199.

Consider GGCCGGCAUGGUCCCAGCUUUCUCGCUGGCGCCGGCUGGGCAACAUUCCGAGGGGACCGUCCCCUCGGUAAUGGCGAAUGGGACCCA [C19U C21U], for which the self-cleavage came to 0.0378.

In the case of GGCCGGCAUGGUCCCAGCCUCCUCGCUUGCGCCGGCUGGGCAACAUUCCGAGGGGACCGUCCCCUCGGUAAGGGCGAAUGGGACCCA [G28U U72G], the self-cleavage worked out at 0.0554.

In the case of GGCCGGCAUGGUCCCAGCCUCCUCGCUGGCGCCGGCUGGGAAACAUUCCGAGGGGACCGUCCCGUCGGUAAUGGCGAAUGGGACCCA [C41A C64G], the self-cleavage was 0.884.

On to GGCCGGCAUGGUCCCAGCCUCCUGGCUGGCGCCGGCUGGGCAACAUUCCGAGGGGACCGUCCCCUCGGUAAUGGCGAAUUGGACCCA [C24G G80U], for which the self-cleavage was determined as 0.0746.

As to GGCCGGCAUGGUCCCAGCCUCCUCGCUGGCGCCGGCUGGGCAACAUUCCGACGGGACCGUCCCCACGGUAAUGGCGAAUGGGACCCA [G52C U65A], the self-cleavage was 0.939.

With GGCCGGCAUGGCCCCAGCCUCCACGCUGGCGCCGGCUGGGCAACAUUCCGAGGGGACCGUCCCCUCGGUAAUGGCGAAUGGGACCCA [U12C U23A], the self-cleavage was 0.0594.

As to GGCCGGCAUGGUCCCAACCUCCUCGCUGGCGCCGGCUGGGCAACAUUCCGAGGGGACCGUCCCCUCGGUAAUGGCGCAUGGGACCCA [G17A A77C], the self-cleavage came out at 0.0978.

As for GGCCGGCAUGGUCCCAGCCUCCUCGCUGGCGCCGGCUGGGCAACAUUCCGGGGGGACCGUCCCGUCGGUAAUGGCGAAUGGGACCCA [A51G C64G], the self-cleavage was 0.902.

GGCCGGCAUGGUCCCAGCCUCCUCGCUGGCGCCGGCUGGGCAACAUUCCGGGGGGACCGUCCCUUCGGUAAUGGCGAAUGGGACCCA [A51G C64U]: the self-cleavage came out at 0.892.

As for GGCCGGCAUGGUCCCAGCCUCCUCGCUGGCGCCGGCUGGGAAACAUUCGGAGGGGACCGUCCCCUCGGUAAUGGCGAAUGGGACCCA [C41A C49G], the self-cleavage amounted to 0.91.

As to GGCGGGCAUGGUCCCAGCAUCCUCGCUGGCGCCGGCUGGGCAACAUUCCGAGGGGACCGUCCCCUCGGUAAUGGCGAAUGGGACCCA [C4G C19A], the self-cleavage came to 0.

As for GGCCGGCAUGGUCCCAGCCUCCUCGCUGGCGCCGGGGGGGCAACAUUCCGAGGGGACCGUCCCCUCGGUAAUGGCGAAUGGGACCCA [C36G U37G], the self-cleavage came to 0.213.

For the variant GGCCGGCAUGUUCCCAGCCUUCUCGCUGGCGCCGGCUGGGCAACAUUCCGAGGGGACCGUCCCCUCGGUAAUGGCGAAUGGGACCCA [G11U C21U], the self-cleavage was 0.0923.

In the case of GGCCGUCAUGGUCCCAGCCUCCUCGCUGGCGCCGGCUGGGCAACAUUCCGAGGGGACCGUCCCCUCGGUAAUGGCGAAUGGGACCCC [G6U A87C], the self-cleavage is 0.592.

For GGCCUGGAUGGUCCCAGCCUCCUCGCUGGCGCCGGCUGGGCAACAUUCCGAGGGGACCGUCCCCUCGGUAAUGGCGAAUGGGACCCA [G5U C7G], the self-cleavage worked out at 0.104.

For the variant GGCCGACAUGGUCUCAGCCUCCUCGCUGGCGCCGGCUGGGCAACAUUCCGAGGGGACCGUCCCCUCGGUAAUGGCGAAUGGGACCCA [G6A C14U], the self-cleavage stood at 0.87.

Take GGCCCGCAUGGUCCCAGCCUCCUCGCUGGCGCCGGCUGGGCAACAUUCCGAGGGGACCGUCCCCUCGGUAAUGGCGAAUGGGACCCU [G5C A87U]: the self-cleavage is 0.175.

GGCCGGCAUGGUCCCAGCCGCCUCGCUGGCGCCGGCUGGGCAACAUUCCGAGGGGACCGUCCCCUCGGUAAUGGUGAAUGGGACCCA [U20G C75U]: the self-cleavage came to 0.0875.

As to GGGCGGCAUGGUCCCAGCCUCCUCGCUGGCGCCGGCUGGGCAACAUUCCGCGGGGACCGUCCCCUCGGUAAUGGCGAAUGGGACCCA [C3G A51C], the self-cleavage is 0.779.

As to GGCCGGCAUGGUACCAGCCUCCUCGCUGCCGCCGGCUGGGCAACAUUCCGAGGGGACCGUCCCCUCGGUAAUGGCGAAUGGGACCCA [C13A G29C], the self-cleavage is 0.

GGCCGGCAUGGUCCCAGCCUCCUCGCUGGCGCCGGCUGGGCAACAUUCCGAGGGCACCGUCCCCUUGGUAAUGGCGAAUGGGACCCA [G55C C66U]: the self-cleavage amounted to 0.983.

As for GGCCGGCAUGGUCCCAGCCUCCUCGCUGGCGCCGGCUGGGCAACAUUCCGAGGGGACCGUCCCCUCGGUAAUGGCCAAUGGGACGCA [G76C C85G], the self-cleavage came out at 1.23.

Take GGCCGCCAUGGUCCCAGCCUCCUCGCUGGCGCCGGCUGGGCAACAUUCCGAGGGGACCGUCCCCUCGGUGAUGGCGAAUGGGACCCA [G6C A70G]: the self-cleavage is 0.175.

For GGCCGGCAUGGUCCCAGCCUCCUCGCUGGCGCCGGCUGGGCACCAUUCCGAGGGGACCGUCCCCUCGGUACUGGCGAAUGGGACCCA [A43C A71C], the self-cleavage came to 0.534.
